Experiment [1] deals with B16F10 tumor microvessels. The experiment in a line: Intratumoral microvessel density, CD31 immunostaining (Example 15-2). Format: in vivo, BALB/c nude mice. Conditions: B16F10 tumors of treated mice. The procedure:
To determine whether the reduced size of the indicated protein-treated tumors coincides with reduced neovascularization, the present inventors used six representative tumors to quantify the density of microvessels after immunostaining with CD31 antibody.
Concretly, intratumoral microvessel density (MVD) was analyzed on paraffin sections of B16F10 tumor using a rat anti-mouse CD31 monoclonal antibody (PharMingen, San Diego, Calif.). Immunoperoxidase staining was done using the Vectastain avidin-biotin complex Elite reagent kit (Vector Laboratories, Burlingame, Calif.). Sections were counterstained with Hematoxyline. MVD was assessed initially by scanning the tumor at low power, followed by identification of four areas at the tumor periphery containing the maximum number of discrete microvessels, and counting individual microvessels at a high power field (x200). Each group consisted of six or eight tumor tissue.

Experiment [2] has as its system blood vessels in Matrigel plugs. The experiment in a line: In vivo Matrigel plug assay (Example 9-2). Set-up: species or system C57/BL6 mice. The procedure:
An in vivo Matrigel plug assay was performed according to the method described by Maeshima, Y. et al., J. Biol. Chem., 275:23745-23750, 2000. 5-6 week old male C57/BL6 mice purchased from Hyochang scientific company, Korea, were used.
First, Matrigel (BD Biosciences, MA) was mixed with 20 units/ml heparin, 150 ng/ml bFGF (basic fibroblast growth factor, R&D system, International, Inc), and 5 μM or 10 μM of the fas-1 domain (pig-h3 D-IV). As a control was treated with PBS. The Matrigel mixture was injected subcutaneously to the C57/BL6 mice. After 7 days, the mice were sacrificed, and the Matrigel plugs were removed and fixed in 4% paraformaldehyde. The Matrigel plugs were embedded in paraffin, sectioned and stained with H&E. Their sections were examined by light microscope, the number of blood vessels from 4-6 HPF (high power fields; x200) was counted and averaged. Each group consisted of 3 or 4 Matrigel plugs.

A further experiment has as its system HUVECs. The experiment in a line: Adhesion of endothelial cells to fibronectin, vitronectin or collagen (Example 5-1). Format: cell-based, human. The procedure: Flat-bottomed 96-well ELISA (enzyme-linked immunosorbent assay) plates (Costar, Corning Inc., NY) were incubated overnight at 4° C. with 10 μg/ml of fibronectin (Promega Inc., USA), vitronectin (Promega Inc., USA) and collagen, respectively, to coat the well surface. Then, a test was performed in the same manner as in Example 4-1 above.

For experiment [3], the system named is tumors derived from fas-1/B16F10 cells. As to the kind of experiment: Growth of tumors derived from fas-1-overexpressing melanoma cells (Example 10-2). It counts as in vivo, mice. To be noted: fas-1 domain overexpressed in the implanted B16F10 cells. The procedure:
Each of the fas-1-overexpressing melanoma cells (fas-1/B16F10) and the control cells (pLNCX/B16F10) was suspended in medium at a density of 1×10^7 cells/ml. 0.1 ml of each of the cell suspensions was injected subcutaneously to 5-6 week old mice (Hyochang scientific company, Korea) to make a tumor model. Since the diameter of the tumor reached about 3 mm, the body weight and tumor size of the mice were checked at intervals of three days. The longest diameter and the shortest diameter of the tumor were measured with slide calipers, and the measured values were substituted in the following equation (1) to calculate the volume of the tumor. Volume of tumor=a×b^2/2 [Equation 1]
Wherein, ‘a’ is the shortest diameter of the tumor, and ‘b’ is the longest diameter of the tumor.

In a further experiment the test system is caspase-3. The experiment in a line: Caspase-3 activity in HUVECs (Example 7-2). It counts as cell-based, human. To be noted: control (PBS) at 24 hours about 250 AU. The procedure: With respect to the induction of endothelial cell apoptosis (active cell death) by the fas-1 domain, which had been confirmed in Example 7-1 above, the present inventors measured the activity of caspase-3, which is activated when apoptosis occurs, in the cells treated with the fas-1 domain.
HUVECs were spread onto a 100-mm plate (10 ml culture solution) with M199 medium containing 10% FBS, followed by incubation in a 37° C. incubator for 12 hours. After the incubation, the medium was removed from the plate, the cells were added with fresh medium containing 0.1% FBS and further incubated for 24 hours. The cell-containing medium was treated with 5 μM or 20 μM of the fas-1 domain (βig-h3 D-IV) prepared in Example 1. A control was treated with PBS buffer. At 12 hours and 24 hours after the treatment, the cells were harvested. The caspase-3 activity of the cells was measured with an EnzCheck Caspase-3 Assay Kit(#2) (Molecular Probe Co., Eugene, Oreg., USA). Moreover, to verify that measured values are attributed to caspase-3 activity, each of the samples was treated with DEVD-CHO (Molecular Probe Co., Eugene, Oreg., USA) as a caspase-3-specific inhibitor. The control was treated with DMSO.

Experiment [4] concerns Melanoma cells B16F10 tumor. As to the kind of experiment: B16F10 subcutaneous tumor model, tumor growth and CD31 blood vessel count (Example 10-3). Conditions: 9 mg/kg or 18 mg/kg into the abdominal cavity one time a day. Format: in vivo, BALB/c nude mouse. The procedure:
Melanoma cells B16F10 were suspended in medium at a density of 1×10^7 cells/ml. 0.1 ml of the cell suspension was injected subcutaneously to 5-6 week old BALB/c nude mouse (purchased from Jung-Ang Animal Inc. Ltd., Korea) to make a subcutaneous tumor model. When the volume of the tumor reached about 25 mm^3, mice having similar tumor size were selected and divided into three groups. The fas-1 domain (βig-h3 D-IV) prepared in Example 1 above was injected into the abdominal cavity of the mice of each group at the amount of 9 mg/kg or 18 mg/kg one time a day. A control was injected with saline solution. Thereafter, the body weight and tumor size of the mice were checked at intervals of three days. The diameter of the tumor was measured with slide calipers, and the volume of the tumor was calculated according to the equation 1 above.
Meanwhile, the tumor was removed after a given time, photographed with a stereoscopic microscope, weighed, and then fixed in 4% paraformaldehyde. The fixed tumor was immersed in 30%, 20% and 10% sucrose solutions one after another for one hour each solution, frozen rapidly with liquid nitrogen spray, and then left to stand at […] for two hours. The frozen tumor was sliced with a tissue microtome (Leica, Germany) to make tissue slides which were then dried at room temperature. Thereafter, the tissue slides were immuno-stained with CD31 (Pharmingen, San Diego, Calif.), an antibody that binds specifically to vascular endothelial cells. The immuno-stained slides were observed under a microscope, and the number of blood vessels from 3-5 LPF (low power fields; x100) was counted and averaged. Each group consisted of 5 or 6 members.

B1: truncated βig-h3: recombinant human βig-h3 with EMI domain, all four fas-1 domains and RGD motif; residues 68-653 of SEQ ID NO: 1 (SEQ ID NO: 66) (protein, listed as Homo sapiens)
chain: WYQRKICGKSTVISYECCPGYEKVPGEKGCPAALPLSNLYETLGVVGSTTTQLYTDRTEKLRPEMEGPGSFTIFAPSNEAWASLPAEVLDSLVSNVNIELLNALRYHMVGRRVLTDELKHGMTLTSMYQNSNIQIHHYPNGIVTVNCARLLKADHHATNGVVHLIDKVISTITNNIQQIIEIEDTFETLRAAVAASGLNTMLEGNGQYTLLAPTNEAFEKIPSETLNRILGDPEALRDLLNNHILKSAMCAEAIVAGLSVETLEGTTLEVGCSGDMLTINGKAIISNKDILATNGVIHYIDELLIPDSAKTLFELAAESDVSTAIDLFRQAGLGNHLSGSERLTLLAPLNSVFKDGTPPIDAHTRNLLRNHIIKDQLASKYLYHGQTLETLGGKKLRVFVYRNSLCIENSCIAAHDKRGRYGTLFTMDRVLTPPMGTVMDVLKGDNRFSMLVAAIQSAGLTETLNREGVYTVFAPTNEAFRALPPRERSRLLGDAKELANILKYHIGDEILVSGGIGALVRLKSLQGDKLEVSLKNNVVSVNKEPVAEPDIMATNGVVHVITNVLQPPANRPQERGDELADSALEI
With B1, in experiment [1], the “CD31-positive microvessels in tumor (intratumoral microvessel density)” value was “decrease in CD31-positive microvessels”.

B2: fas-1 domain: recombinant protein containing the fourth fas-1 domain of human βig-h3 (SEQ ID NO: 64) (protein, listed as Homo sapiens)
chain: MGTVMDVLKGDNRFSMLVAAIQSAGLTETLNREGVYTVFAPTNEAFRALPPRERSRLLGDAKELANILKYHIGDEILVSGGIGALVRLKSLQGDKLEVSLKNNVVSVNKEPVAEPDIMATNGVVHVITNVL
As to B2, in experiment [2] (5 μM fas-1 domain vs 500 μM YH peptide), the “in vivo angiogenesis inhibitory effect compared with YH motif-containing peptide fragment of 18 amino acids” value was “significantly higher”. In experiment [2] (5 μM in Matrigel, subcutaneous, 7 days), the “number of blood vessels in Matrigel plug” value is given as “significantly smaller than that in the control”. In addition, in experiment [2] (10 μM in Matrigel, subcutaneous, 7 days), the “angiogenesis in Matrigel plug” value is reported as “perfectly inhibited”. For the same molecule, the “inhibition of adhesion of HUVECs to collagen” value in the experiment on HUVECs (plate coated with 10 μg/ml collagen) was “only partially inhibited”. In addition, the “inhibition of adhesion of HUVECs to fibronectin” value in the experiment with HUVECs (plate coated with 10 μg/ml fibronectin) is on record as “completely inhibited”. The “inhibition of adhesion of HUVECs to vitronectin” value in the experiment with HUVECs (plate coated with 10 μg/ml vitronectin) is “completely inhibited”. Moreover, the “growth of tumors derived from melanoma cells” value in experiment [3] was “inhibits the in vivo growth of tumors derived from the melanoma cells”. Moreover, the caspase-3 activity in the experiment with caspase-3 (5 μM) stood at 300 AU. The caspase-3 activity in the experiment with caspase-3 (20 μM) was found to be 600 AU. Also, in experiment [4], the “number of blood vessels stained with CD31 antibody in tumor” value is on record as “significantly smaller than that of the control”, the “tumor growth rate with time” value is “much lower than that of the control” and the tumor size result is listed as “little or no increase in size even at 10 days after tumor induction”.

Values taken from patent publication US20070167369A1, “Novel use of isolated polypeptide comprising four FAS-1 domains, EM1 domain and RGD motif” (KYUNGPOOK NATIONAL UNIVERSITY INDUSTRY-ACADEMIC COOPERATION …, priority 2004, published 2007).
